Assay results: patent EP4810515A1 (Shanghai Haiju Biological Technology Co., Ltd., dated 2026)

T1: human GDF15 recombinant protein (ACRO, GD5-H5149) (human, UniProt Q99988 197-308)
T1 sequence (looked up): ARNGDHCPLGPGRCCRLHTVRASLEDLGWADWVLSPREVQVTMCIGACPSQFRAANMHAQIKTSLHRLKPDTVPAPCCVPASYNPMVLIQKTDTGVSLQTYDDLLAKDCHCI

T2: GDF15 protein (R&D, 8146-GD) (UniProt Q99988 197-308)
T2 construct: analyte of the SPR assay
T2 sequence (looked up): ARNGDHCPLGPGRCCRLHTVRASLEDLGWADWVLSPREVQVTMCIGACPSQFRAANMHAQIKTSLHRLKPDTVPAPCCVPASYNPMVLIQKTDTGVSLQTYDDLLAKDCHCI


Key:
[1] = biological target: T1, human GDF15 recombinant protein (ACRO, …); experiment: cell-based or functional assay
[2] = biological target: T2, GDF15 protein (R&D, 8146-GD); experiment: SPR Biacore T200, antibody captured by anti-hFc on CM5, GDF15 as analyte, 1:1 model

Row | Binder | IC50, reporter gene cell strain (GFRAL/RET) [1] | Kd [2] | koff [2] | kon [2]
1 | G2-H1-hz2-hIgG1(LALAGA, -K) (antibody, V domains shown, humanized from G2-CH1) VH: QVQLQESGPGLVKPSETLSLTCTFSGFSLSTYGIGVGWIRQPPGKGLEWIAHIWWNNNKYFNTALKSRLTISKDTSKNQVSLKLSSVTAADTAVYYCARMGYDIMDYWGQGTLVTVSS VL: DIVMTQSPSSLSTSVGDRVTITCKASQDVNTAVAWYQQKPGKSPKFLIYSSSYRYTGVPDRFSGSGSGTDFTFTISSVQPEDFAVYYCQQHYSTPWTFGGGTKVEIKR | 0.08 nM | 0.0134 nM | 0.000192 s⁻¹ | 1.43e+07 M⁻¹ s⁻¹
2 | G2-H1-hz1-hIgG1(LALAGA, -K) (antibody, V domains shown, humanized from G2-CH1) VH: QVQLQESGPGLVKPSETLSLTCTFSGFSLSTYGIGVGWIRQPPGKGLEWIAHIWWNNNKYFNTALKSRLTISKDTSKNQVSLKLSSVTAADTAVYYCARMGYDIMDYWGQGTLVTVSS VL: DIQMTQSPSSLSTSVGDRVTITCKASQDVNTAVAWYQQKPGKAPKFLIYSSSYRYTGVPDRFSGSGSGTDFTFTISSLQPEDFAVYYCQQHYSTPWTFGQGTKVEIKR | 0.063 nM | 0.0105 nM | 0.000146 s⁻¹ | 1.39e+07 M⁻¹ s⁻¹
3 | G2-H1-hz4-hIgG1(LALAGA, -K) (antibody, V domains shown, humanized from G2-CH1) VH: QVQLQESGPGLVKPSETLSLTCTFSGFSLSTYGIGVGWIRQPPGKGLEWIAHIWWNNNKYFNTALKSRLTISKDTSKNQVSLKLSSVTAADTAVYYCARMGYDIMDYWGQGTLVTVSS VL: DIVMTQSPATLSTSPGERVTISCKASQDVNTAVAWYQQKPGQSPRFLIYSSSYRYTGVPDRFSGSGSGTDFTFTISSVQSEDFAVYYCQQHYSTPWTFGGGTKVEIKR | 0.071 nM | 0.00993 nM | 0.000183 s⁻¹ | 1.84e+07 M⁻¹ s⁻¹
4 | G2-H1-hz6-hIgG1(LALAGA, -K) (antibody, V domains shown, humanized from G2-CH1) VH: QVTLQESGPGLVKPSETLSLTCSFSGFSLSTYGIGVGWIRQPPGKGLEWLAHIWWNNNKYFNTALKSRLTISKDTSKNQVSLKLSSVTAADTATYYCARMGYDIMDYWGQGTSVTVSS VL: DIVMTQSPSSLSTSVGDRVTITCKASQDVNTAVAWYQQKPGKSPKFLIYSSSYRYTGVPDRFSGSGSGTDFTFTISSVQPEDFAVYYCQQHYSTPWTFGGGTKVEIKR | 0.073 nM | 0.0151 nM | 0.000221 s⁻¹ | 1.46e+07 M⁻¹ s⁻¹
5 | G2-H1-hz8-hIgG1(LALAGA, -K) (antibody, V domains shown, humanized from G2-CH1) VH: QVTLQESGPGLVKPSETLSLTCSFSGFSLSTYGIGVGWIRQPPGKGLEWLAHIWWNNNKYFNTALKSRLTISKDTSKNQVSLKLSSVTAADTATYYCARMGYDIMDYWGQGTSVTVSS VL: DIVMTQSPATLSTSPGERVTISCKASQDVNTAVAWYQQKPGQSPRFLIYSSSYRYTGVPDRFSGSGSGTDFTFTISSVQSEDFAVYYCQQHYSTPWTFGGGTKVEIKR | 0.062 nM | 0.0178 nM | 0.000273 s⁻¹ | 1.53e+07 M⁻¹ s⁻¹
6 | G2-H1-hz13-hIgG1(LALAGA, -K) (antibody, V domains shown, humanized from G2-CH1) VH: QVTLLESGGGLVQPGGSLRLSCSFSGFSLSTYGIGVGWIRQAPGKGLEWLAHIWWNNNKYFNTALKSRLTISKDTSKNTVYLQMNSVRAEDTAVYYCARMGYDIMDYWGQGTTVTVSS VL: DIQMTQSPSSLSTSVGDRVTITCKASQDVNTAVAWYQQKPGKAPKFLIYSSSYRYTGVPDRFSGSGSGTDFTFTISSLQPEDFAVYYCQQHYSTPWTFGQGTKVEIKR | 0.062 nM | 0.0211 nM | 0.000297 s⁻¹ | 1.41e+07 M⁻¹ s⁻¹
7 | G2-H1-hz14-hIgG1(LALAGA, -K) (antibody, V domains shown, humanized from G2-CH1) VH: QVTLLESGGGLVQPGGSLRLSCSFSGFSLSTYGIGVGWIRQAPGKGLEWLAHIWWNNNKYFNTALKSRLTISKDTSKNTVYLQMNSVRAEDTAVYYCARMGYDIMDYWGQGTTVTVSS VL: DIVMTQSPSSLSTSVGDRVTITCKASQDVNTAVAWYQQKPGKSPKFLIYSSSYRYTGVPDRFSGSGSGTDFTFTISSVQPEDFAVYYCQQHYSTPWTFGGGTKVEIKR | 0.085 nM | 0.0107 nM | 0.00015 s⁻¹ | 1.4e+07 M⁻¹ s⁻¹
8 | G2-H1-hz15-hIgG1(LALAGA, -K) (antibody, V domains shown, humanized from G2-CH1) VH: QVTLLESGGGLVQPGGSLRLSCSFSGFSLSTYGIGVGWIRQAPGKGLEWLAHIWWNNNKYFNTALKSRLTISKDTSKNTVYLQMNSVRAEDTAVYYCARMGYDIMDYWGQGTTVTVSS VL: DIVMTQSPATLSTSPGERATLSCKASQDVNTAVAWYQQKPGQAPRFLIYSSSYRYTGVPARFSGSGSGTEFTFTISSLQSEDFAVYYCQQHYSTPWTFGGGTKVEIKR | 0.077 nM | 0.00923 nM | 0.000115 s⁻¹ | 1.25e+07 M⁻¹ s⁻¹
9 | G2-H8-H1L1-hIgG1(LALAGA,-K)(gsm) (antibody, V domains shown, humanized from G2-CH8-LP3; also called G2-H8-H1L1-hIgG1(gsm); G2-H8-H1L1-hIgG1 (gsm)(LALAGA,-K)) VH: QITLKESGPTLVKPTQTLTLTCTFSGFSLSTYGIGVGWIRQPPGKALEWLAHIWWNDNKYYNTALKSRLTITKDTSKNQVVLTMTNMDPVDTATYYCARLAYDYVDSWGQGTLVTVSS VL: DIVMTQTPLSLSVTPGQPASISCKSSKSLLHSEGITYLYWYLQKPGQSPQLLIYQMSNLVSGVPDRFSGSGSGTDFTLKISRVEAEDVGVYYCAQNLELPPTFGQGTKLEIKR | 0.069 nM | 0.022 nM | 0.00017 s⁻¹ | 7.75e+06 M⁻¹ s⁻¹
10 | G2-H8-H2L2-hIgG1(LALAGA,-K) (antibody, V domains shown, humanized from G2-CH8-LP3) VH: QVTLKESGPALVKPTQTLTLTCTFSGFSLSTYGIGVGWIRQPPGKGLEWLAHIWWNDNKYYNTALKSRLTISKDTSKNQVVLTMTNMDPVDTATYYCARLAYDYVDSWGQGTTLTVSS VL: DIVMTQTPLSLSVTPGQPASISCRSSKSLLHSEGITYLYWYLQKPGQSPQLLIYQMSNLVSGVPDRFSSSGSGTDFTLKISRVEAEDVGVYYCAQNLELPPTFGQGTKLEIKR | 0.053 nM | 0.0143 nM | 0.000127 s⁻¹ | 8.9e+06 M⁻¹ s⁻¹
11 | G2-H5-H2.2L2-hIgG1(LALAGA,-K) (antibody, V domains shown, humanized from G2-CH5-HP2) VH: EVQLVQSGAEVKKPGASVKVSCKASGYTFTDYNLNWVRQATGQGLEWMGDLNPYNQGIIYNQKFKGRVTLTVDKSISTAYMELSSLRSEDTAVYYCAREGRGGAWFDSWGQGTLVTVSS VL: DIQMTQSPSSLSASVGDRVTITCKASEDIYHRLAWYQQKPGKAPKLLIYGATSLETGVPSRFSGSGSGTDYTFTISSLQPEDIATYYCQQYWSPPFTFGGGTKVEIKR | 0.049 nM | 0.0178 nM | 0.000145 s⁻¹ | 8.11e+06 M⁻¹ s⁻¹
12 | G2-H5-H1.2L1-hIgG1(LALAGA,-K) (antibody, V domains shown, humanized from G2-CH5-HP2) VH: EVQLVQSGAEVKKPGASVKVSCKASGYTFTDYNLNWVRQATGQGLEWMGDLNPYNQGIIYNQKFKGRVTMTVDTSISTAYMELSSLRSEDTAVYYCAREGRGGAWFDSWGQGTLVTVSS VL: DIQMTQSPSSLSASVGDRVTITCKASEDIYHRLAWYQQKPGKAPKLLIYGATSLETGVPSRFSGSGSGTDFTFTISSLQPEDIATYYCQQYWSPPFTFGGGTKVEIKR | 0.036 nM | 0.0244 nM | 0.000169 s⁻¹ | 6.94e+06 M⁻¹ s⁻¹
13 | G2-H5-H1.2L2-hIgG1(LALAGA,-K) (antibody, V domains shown, humanized from G2-CH5-HP2) VH: EVQLVQSGAEVKKPGASVKVSCKASGYTFTDYNLNWVRQATGQGLEWMGDLNPYNQGIIYNQKFKGRVTMTVDTSISTAYMELSSLRSEDTAVYYCAREGRGGAWFDSWGQGTLVTVSS VL: DIQMTQSPSSLSASVGDRVTITCKASEDIYHRLAWYQQKPGKAPKLLIYGATSLETGVPSRFSGSGSGTDYTFTISSLQPEDIATYYCQQYWSPPFTFGGGTKVEIKR | 0.046 nM | 0.0145 nM | 0.000134 s⁻¹ | 9.19e+06 M⁻¹ s⁻¹
14 | G2-H5-H1.2L3-hIgG1(LALAGA,-K) (antibody, V domains shown, humanized from G2-CH5-HP2) VH: EVQLVQSGAEVKKPGASVKVSCKASGYTFTDYNLNWVRQATGQGLEWMGDLNPYNQGIIYNQKFKGRVTMTVDTSISTAYMELSSLRSEDTAVYYCAREGRGGAWFDSWGQGTLVTVSS VL: DIQMTQSPSSLSASVGDRVTITCKASEDIYHRLAWYQQKPGKAPKLLISGATSLETGVPSRFSGSGSGTDYTFTISSLQPEDIATYYCQQYWSPPFTFGGGTKVEIKR | 0.069 nM | 0.0197 nM | 0.000185 s⁻¹ | 9.37e+06 M⁻¹ s⁻¹
15 | G2-H5-H1.2L4-hIgG1(LALAGA,-K) (antibody, V domains shown, humanized from G2-CH5-HP2) VH: EVQLVQSGAEVKKPGASVKVSCKASGYTFTDYNLNWVRQATGQGLEWMGDLNPYNQGIIYNQKFKGRVTMTVDTSISTAYMELSSLRSEDTAVYYCAREGRGGAWFDSWGQGTLVTVSS VL: DIQMTQSPSSLSASVGDRVTITCKASEDIYHRLAWYQQKPGKAPKLLISGATSLETGIPSRFSGSGSGTDYTFTISSLQPEDIATYYCQQYWSPPFTFGGGTKVEIKR | 0.053 nM | 0.0241 nM | 0.000201 s⁻¹ | 8.36e+06 M⁻¹ s⁻¹
16 | G2-H5-H2.2L1-hIgG1(LALAGA, -K) (antibody, V domains shown, humanized from G2-CH5-HP2) VH: EVQLVQSGAEVKKPGASVKVSCKASGYTFTDYNLNWVRQATGQGLEWMGDLNPYNQGIIYNQKFKGRVTLTVDKSISTAYMELSSLRSEDTAVYYCAREGRGGAWFDSWGQGTLVTVSS VL: DIQMTQSPSSLSASVGDRVTITCKASEDIYHRLAWYQQKPGKAPKLLIYGATSLETGVPSRFSGSGSGTDFTFTISSLQPEDIATYYCQQYWSPPFTFGGGTKVEIKR | 0.055 nM | 0.0229 nM | 0.000189 s⁻¹ | 8.26e+06 M⁻¹ s⁻¹
17 | G2-H5-H2.2L3-hIgG1(LALAGA,-K) (antibody, V domains shown, humanized from G2-CH5-HP2) VH: EVQLVQSGAEVKKPGASVKVSCKASGYTFTDYNLNWVRQATGQGLEWMGDLNPYNQGIIYNQKFKGRVTLTVDKSISTAYMELSSLRSEDTAVYYCAREGRGGAWFDSWGQGTLVTVSS VL: DIQMTQSPSSLSASVGDRVTITCKASEDIYHRLAWYQQKPGKAPKLLISGATSLETGVPSRFSGSGSGTDYTFTISSLQPEDIATYYCQQYWSPPFTFGGGTKVEIKR | 0.048 nM | 0.0336 nM | 0.000284 s⁻¹ | 8.46e+06 M⁻¹ s⁻¹
18 | G2-H5-H2.2L4-hIgG1(LALAGA,-K) (antibody, V domains shown, humanized from G2-CH5-HP2) VH: EVQLVQSGAEVKKPGASVKVSCKASGYTFTDYNLNWVRQATGQGLEWMGDLNPYNQGIIYNQKFKGRVTLTVDKSISTAYMELSSLRSEDTAVYYCAREGRGGAWFDSWGQGTLVTVSS VL: DIQMTQSPSSLSASVGDRVTITCKASEDIYHRLAWYQQKPGKAPKLLISGATSLETGIPSRFSGSGSGTDYTFTISSLQPEDIATYYCQQYWSPPFTFGGGTKVEIKR | 0.048 nM | 0.021 nM | 0.000231 s⁻¹ | 1.1e+07 M⁻¹ s⁻¹
